Experimental data taken from patent US9228015B2, “Nogo receptor antagonists and methods of increasing neurite outgrowth” (Biogen Idec MA Inc., priority 2006, dated 2016).

Experiments:
[1] = tested on: P6 DRG neurons; test: Neuro-protection assay, P6-7 rat DRG neurons with or without laminin; assay type: cell-based
Procedure: We also tested the neuro-protective effect of soluble Nogo receptors by performing experiments with cells grown in the presence and absence of laminin. Neuronal cell growth in media without laminin is poor and models neuronal stress conditions.
DRG's were dissected from post-natal day 6-7 rat pups (P6-7), dissociated into single cells and plated on 96-well plates pre-coated with poly-D-lysine as described above. In some wells 2 μg/ml laminin was added for 2-3 hours and rinsed before the cells were plated. After an 18-20 h incubation the plates were fixed with 4% para-formaldehyde, stained with rabbit anti-Beta-III-tubulin antibody diluted 1:500 (Covance®) and anti-HuC/D diluted 1:100 (Molecular Probes), and fluorescent secondary antibodies (Molecular Probes) were added at 1:200 dilution. The ArrayScan® II (Cellomics®) was used to capture 5× digital images and to quantify neurite outgrowth as average neurite outgrowth/neuron per well, by using the Neurite outgrowth application. Nine 5× images from 3 wells/condition were analyzed.
(§1) sNogoR344-Fc or rat IgG were added in solution to P6-7 DRG neurons and to differentiated Neuroscreen™ cells at the time of plating.

[2] = tested on: Neuroscreen cells (sub-clone of PC12 cells); test: Neuro-protection assay, differentiated Neuroscreen cells with or without laminin; assay type: cell-based; settings: same concentrations, absence of laminin
Procedure: In some experiments, a sub-clone of PC12 cells (Neuroscreen™) was used (Cellomics®). The Neuroscreen™ cells were pre-differentiated for 7 days with 200 ng/ml NGF, detached and replated on 96-well plates pre-coated with poly-D-lysine. In some wells 5 μg/ml laminin was added for 2-3 hours and rinsed before the cells were plated. After 2 days incubation the plates were fixed with 4% paraformaldehyde, stained with rabbit anti-Beta-III-tubulin antibody diluted 1:500 (Covance®) and Hoechst (nuclear stain). The ArrayScan® II was used to quantify neurite outgrowth as in the DRG cells.
as §1

[3] = tested on: NogoA, NogoB, NogoC, MAG and OM-gp binding to Nogo receptor-1; test: Soluble Nogo receptors block ligand binding to Nogo receptor-1
[4] = tested on: DRG neurons, myelin-mediated inhibition of neurite outgrowth; test: Neurite outgrowth assay, P3-4 rat DRG neurons, myelin mixed with test protein (Example 10); assay type: cell-based; settings: mixed with CNS myelin, FIGS. 9-11
Procedure: Lab-Tek® culture slides (4 wells) were coated with 0.1 mg/ml poly-D-lysine (Sigma®). CNS myelin alone or mixed with sNogoR310, sNogoR310-Fc fusion protein, mAb 5B10 or control PBS were separately spotted as 3 μl drops. Fluorescent microspheres (Polysciences) were added to the myelin/PBS to allow later identification of the drops (Grandpre et al., Nature 403:439-444 (2000)). Lab-Tek® slides were then rinsed and coated with 10 μg/ml laminin (Gibco™).
Dorsal root ganglions (DRG's) from P3-4 Sprague Dawley rat pups were dissociated with 1 mg/ml collagenase type 1 (Worthington), triturated with fire-polished Pasteur pipettes pre-plated to enrich in neuronal cells and finally plated at 23,000 cells/well on the pre-coated Labtek culture slides. The culture medium was F12 containing 5% heat inactivated donor horse serum, 5% heat inactivated fetal bovine serum and 50 ng/ml mNGF and incubated at 37° C. and 5% CO2 for 6 hours.
Slides were fixed for 20 minutes with 4% paraformaldehyde containing 20% sucrose and stained for the neuronal marker anti beta-III-tubulin (Covance TUJ1) diluted 1:500. As secondary antibody anti-mouse Alexa Fluor® 594 (Molecular Probes) was diluted 1:300 and slides were coverslipped with Gel/Mount™ (Biømeda™). 5× digital images were acquired with OpenLab™ software and analyzed by using the MetaMorph® software for quantification of neurite outgrowth.

[5] = tested on: chick neurons; test: Neurite outgrowth assay using chick neurons; assay type: cell-based
[6] = tested on: mice with dorsal over-hemisection injury; test: gfap::sNogoR310 transgenic mice, dorsal over-hemisection: axon tracing and serotonin fiber analysis; assay type: in vivo, mouse
Excerpt: We cloned the mouse sNogoR310 cDNA (corresponding to amino acids 1-310 of the Nogo receptor-1) into the Nod site of the C-3123 vector. In this vector, sNogoR310 expression is under the control of the glial fibrillary acidic protein (gfap) gene regulatory elements, which allow high level expression with enhanced secretion from reactive astrocytes at site of injury. We digested the resulting vector sequentially with AatII and SfiI and isolated the gfap::sNogoR310 construct on a 3.4 kb fragment. We microinjected this fragment into embryos to generate transgenic mice. We verified by PCR that the transgene had integrated and identified five founder lines. We crossed heterozygous males of the two founder lines with the highest expression levels to female C57BL/6J mice. We confirmed that the GFAP-positive cells express and secrete sNogoR310 in heterozygous transgenic mice by Western blot analysis using antibody raised against Nogo receptor-1.
We deeply anesthetized adult female heterozygous transgenic or littermate WT mice (10-16 weeks of age) and performed a complete laminectomy, fully exposing the dorsal part of spinal cord at T6 and T7 levels. We performed a dorsal over-hemisection at T6 with a 30-gauge needle and a pair of microscissors to completely sever the dorsal and dorsolateral corticospinal tracts (CSTs). We passed a marked needle across the dorsal part of the spinal cord several times to assure that the lesion was at a depth of 1.0 mm. We sutured the muscle layers over the laminectomies and closed the skin on the back with surgical staples. To trace the corticospinal tracts, we made a burr hole overlying cerebral cortex on the right side into the skull 14 days after spinal cord injury. We applied the tracer BDA (MW 10,000, 10% in PBS) (Molecular Probes, Eugene, Oreg.) to 4 injection sites at a depth of 0.7 mm from the cortical surface, Four weeks after injury, the mice were perfused transcardially with PBS, followed by 4% paraformaldehyde.
We investigated the integrity of descending corticospinal tracts (CST) by injecting anterograde tracer biotin dextran amine (BDA) into the right motor cortex as described in Li and Strittmatter, J. Neurosci. 23:4219-27 (2003). In littermate WT mice, the prominent dorsal CST (dCST) is tightly bundled rostral to the lesion, and a few dorsolateral CST fibers are visible ipsilaterally. A small number of BDA-labeled short collateral sprouts project into gray matter, particularly in the ventral cord, but the sprouting is largely confined to the side of the cord contralateral to the tracer injection. However, the sections rostral to dorsal hemisection from injured sNogoR310 transgenic mice indicate a quite different BDA labeling pattern. A high density of BDA-labeled CST fibers are observed outside of prominent dCST in all the transgenic mice from line Tg08 or line Tg01. Ectopic fibers extend throughout the gray matter area, and some fibers reach into lateral and dorsolateral white matter. Several fibers (4-12 sprouts per transverse section) are seen on the opposite side of the spinal cord (ipsilateral to the tracer injection site). Micro densitometric measurement of the collateral sprouts indicates approximately a tenfold increase in sprouting density in sNogoR310 transgenic mice. […]

[7] = tested on: mice with dorsal over-hemisection injury; test: gfap::sNogoR310 transgenic mice, dorsal over-hemisection: behavioral tests; assay type: in vivo, mouse
Excerpt: The Basso-Beattie-Bresnahan (BBB) locomotor rating scale (Basso et al., Neurotrauma 13:343-359 (1996)), the inclined plane test and the inclined grid walking test (Li and Strittmatter, J Neurosci. 23:4219-27 (2003)) were monitored in rats and mice after injury. For the inclined plane test, we measured the maximal angle to which a 50 cm×60 cm board could be angled for 5 sec without the mouse sliding off. For inclined grid walking, the mice were trained to climb a wire grid (35 cm long with 2.54 cm squares) at a slope of 45 degrees. The number of instances in which the hindpaw dropped below the grid plane was scored for each excursion from bottom to top. For the rat behavioral testing, BBB locomotor scale, grid walking and footprint analysis were performed. For grid walking, the rats were trained to walk on a wire grid (70 cm long with 2.54 an squares), and the number of instances in which the hindpaw dropped below the grid plane was counted. For footprint analysis, the walking patterns of rat hindpaws were recorded with ink during a continuous locomotion across a 90 cm runway, and stride length on each side and stride width were calculated (Metz et al., Brain Res. 883:165-177 (2000)). All of these behavioral tests were performed by at least two individuals. Throughout the surgery, behavioral testing and histologic analysis, researchers were blind to the identity of the compound in the minipump.
We deeply anesthetized adult female heterozygous transgenic or littermate WT mice (10-16 weeks of age) and performed a complete laminectomy, fully exposing the dorsal part of spinal cord at T6 and T7 levels. We performed a dorsal over-hemisection at T6 with a 30-gauge needle and a pair of microscissors to completely sever the dorsal and dorsolateral corticospinal tracts (CSTs). We passed a marked needle across the dorsal part of the spinal cord several times to assure that the lesion was at a depth of 1.0 mm. We sutured the muscle layers over the laminectomies and closed the skin on the back with surgical staples. […]

B1: sNogoR344-Fc: fusion protein of residues 26-344 of rat Nogo receptor-1 and hinge and Fc region of rat IgG1 (protein)
chain: PCPGACVCYNEPKVTTSRPQQGLQAVPAGIPASSQRIFLHGNRISYVPAASFQSCRNLTILWLHSNALAGIDAAAFTGLTLLEQLDLSDNAQLRVVDPTTFRGLGHLHTLHLDRCGLQELGPGLFRGLAALQYLYLQDNNLQALPDNTFRDLGNLTHLFLHGNRIPSVPEHAFRGLHSLDRLLLHQNHVARVHPHAFRDLGRLMTLYLFANNLSMLPAEVLVPLRSLQYLRLNDNPWVCDCRARPLWAWLQKFRGSSSGVPSNLPQRLAGRDLKRLATSDLEGCAVASGPFRPFQTNQLTDEELLGLPKCCQPDAADKA
modifications: left off: a dimerising Fc or GST
notes: fusion protein of residues 26-344 of rat Nogo receptor-1 and hinge and Fc region of rat IgG1
- neuro-protective effect ([1]; 1 μM and 10 μM, absence of laminin): observed
- quantification of neurite outgrowth ([1]; absence of laminin): dose-dependent increase
- effect on DRG neurons growing on a laminin substrate ([1]; same concentrations, laminin substrate): did not produce any unusual effect
- neuro-protective effect [2]: seen

B2: sNogoR310: soluble Nogo receptor-1 polypeptide, residues 26-310 of SEQ ID NOs: 7 and 9 or 27-310 of SEQ ID NO: 9; mouse form in transgenic mice (protein, listed as Homo sapiens)
chain: PCPGACVCYNEPKVTTSCPQQGLQAVPVGIPAASQRIFLHGNRISHVPAASFRACRNLTILWLHSNVLARIDAAAFTGLALLEQLDLSDNAQLRSVDPATFHGLGRLHTLHLDRCGLQELGPGLFRGLAALQYLYLQDNALQALPDDTFRDLGNLTHLFLHGNRISSVPERAFRGLHSLDRLLLHQNRVAHVHPHAFRDLGRLMTLYLFANNLSALPTEALAPLRALQYLRLNDNPWVCDCRARPLWAWLQKFRGSSSEVPCSLPQRLAGRDLKRLAANDLQGCA
- block of binding of NogoA, NogoB, NogoC, MAG and OM-gp to Nogo receptor-1 [3]: block
- protection of DRG neurons from myelin-mediated inhibition of neurite outgrowth [4]: protected
- protection in similar assay using chick neurons [5]: protective
- BDA-labeled regenerating fibers coursing in the rostral-caudal axis ([6]; any level 1-4 mm caudal to the lesion, each transgenic mouse): 5-15
- fibers on the opposite side of the spinal cord (ipsilateral to the tracer injection site) ([6]; rostral to dorsal hemisection, transgenic mice): 4-12 sprouts per transverse section
- CST sprouting ([6]; secreted from astrocytes in transgenic mice): induces CST sprouting
- total length of serotonin fibers in the ventral horn of caudal spinal cord ([6]; transgenic vs WT group): much greater number
- increase in collateral sprouting density (micro densitometric measurement) ([6]; transgenic vs WT mice): tenfold
- sustainable angle on inclined plane ([7]; days 7-28 after injury vs control): significantly greater
- BBB scores ([7]; lines Tg08 and Tg01 vs control, 7-28 days): significantly higher
- inclined grid climbing errors ([7]; post-injury, FIG. 13D): progressive improvement
